According to patent US20200115430A1 (I2O THERAPEUTICS, published 2020):
Starred links: 1 amine or outer side, 2 acyl side, 3 side chain; linkers in the order of their positions; H or OH if unused. Positions of bridges follow the written chain, without caps; N, C: chain ends. Groups on a side chain read outwards from the residue. No end group written: not given here. *: point of attachment. C20 diacid = O=C(O)CCCCCCCCCCCCCCCCCCC(=O)*; C18 diacid = O=C(O)CCCCCCCCCCCCCCCCC(=O)*; C17 diacid = O=C(O)CCCCCCCCCCCCCCCC(=O)*; C16 diacid = O=C(O)CCCCCCCCCCCCCCC(=O)*; γGlu = O=C(O)[C@H](CCC(=O)[*:2])N[*:1]

T1: human calcitonin receptor (human, UniProt P30988 25-474)
T1 sequence (looked up): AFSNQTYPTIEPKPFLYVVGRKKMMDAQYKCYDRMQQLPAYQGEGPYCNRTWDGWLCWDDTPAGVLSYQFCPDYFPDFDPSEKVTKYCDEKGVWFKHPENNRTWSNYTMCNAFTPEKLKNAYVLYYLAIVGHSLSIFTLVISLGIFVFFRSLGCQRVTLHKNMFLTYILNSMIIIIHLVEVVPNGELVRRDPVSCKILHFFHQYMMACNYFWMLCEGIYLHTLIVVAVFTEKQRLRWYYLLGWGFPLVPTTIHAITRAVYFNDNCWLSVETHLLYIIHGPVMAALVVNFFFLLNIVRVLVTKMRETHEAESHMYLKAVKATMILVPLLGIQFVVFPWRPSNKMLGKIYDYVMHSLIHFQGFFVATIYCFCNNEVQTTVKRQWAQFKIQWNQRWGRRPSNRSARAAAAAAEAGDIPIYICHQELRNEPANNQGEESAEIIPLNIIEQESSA

T2: human amylin 3 receptor (human, UniProt P30988 25-474; O60896 24-148)
T2 sequence (looked up) 1: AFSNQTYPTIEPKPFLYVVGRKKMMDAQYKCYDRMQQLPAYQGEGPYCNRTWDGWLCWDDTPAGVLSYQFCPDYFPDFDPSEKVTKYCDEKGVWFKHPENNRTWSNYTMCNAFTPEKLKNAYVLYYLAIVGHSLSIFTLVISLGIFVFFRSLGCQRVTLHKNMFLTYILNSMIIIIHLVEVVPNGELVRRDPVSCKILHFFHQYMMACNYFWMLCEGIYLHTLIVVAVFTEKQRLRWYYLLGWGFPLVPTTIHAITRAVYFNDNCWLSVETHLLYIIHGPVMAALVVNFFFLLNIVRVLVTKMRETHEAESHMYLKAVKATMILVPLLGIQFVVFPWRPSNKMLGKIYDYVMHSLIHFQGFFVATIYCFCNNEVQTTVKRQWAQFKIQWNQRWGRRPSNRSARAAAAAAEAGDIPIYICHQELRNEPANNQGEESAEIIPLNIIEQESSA
T2 sequence (looked up) 2: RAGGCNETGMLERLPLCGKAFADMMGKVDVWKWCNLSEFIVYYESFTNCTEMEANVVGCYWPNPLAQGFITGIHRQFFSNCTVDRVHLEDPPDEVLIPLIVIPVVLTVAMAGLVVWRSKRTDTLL


Legend:
[1] = biological target: T1, human calcitonin receptor; assay: cell-based or functional assay
human amylin 3 receptor = biological target: T2, human amylin 3 receptor; assay: cell-based or functional assay

Binder | pEC50 (cAMP accumulation), 0% HSA [1] [pEC50] | pEC50 (cAMP accumulation), 0.1% HSA [1] [pEC50] | pEC50 (cAMP accumulation), 4% HSA [1] [pEC50] | pEC50 (cAMP accumulation), 0% HSA (human amylin 3 receptor) [pEC50] | pEC50 (cAMP accumulation), 0.1% HSA (human amylin 3 receptor) [pEC50] | pEC50 (cAMP accumulation), 4% HSA (human amylin 3 receptor) [pEC50]
K([γGlu-γGlu-C18 diacid])CNTSTCATQRLANELHKSSNNFGPILPPTKVGSETY-NH2 (disulfide 2-7; N-terminus assumed; SMILES CC[C@H](C)[C@H](NC(=O)[C@@H]1CCCN1C(=O)CNC(=O)[C@H](Cc1ccccc1)NC(=O)[C@H](CC(N)=O)NC(=O)[C@H](CC(N)=O)NC(=O)[C@H](CO)NC(=O)[C@H](CO)NC(=O)[C@H](CCCCN)NC(=O)[C@H](Cc1c[nH]cn1)NC(=O)[C@H](CC(C)C)NC(=O)[C@H](CCC(=O)O)NC(=O)[C@H](CC(N)=O)NC(=O)[C@H](C)NC(=O)[C@H](CC(C)C)NC(=O)[C@H](CCCNC(=N)N)NC(=O)[C@H](CCC(N)=O)NC(=O)[C@@H](NC(=O)[C@H](C)NC(=O)[C@@H]1CSSC[C@H](NC(=O)[C@@H](N)CCCCNC(=O)CC[C@H](NC(=O)CC[C@H](NC(=O)CCCCCCCCCCCCCCCCC(=O)O)C(=O)O)C(=O)O)C(=O)N[C@@H](CC(N)=O)C(=O)N[C@@H]([C@@H](C)O)C(=O)N[C@@H](CO)C(=O)N[C@@H]([C@@H](C)O)C(=O)N1)[C@@H](C)O)C(=O)N[C@@H](CC(C)C)C(=O)N1CCC[C@H]1C(=O)N1CCC[C@H]1C(=O)N[C@H](C(=O)N[C@@H](CCCCN)C(=O)N[C@H](C(=O)NCC(=O)N[C@@H](CO)C(=O)N[C@@H](CCC(=O)O)C(=O)N[C@H](C(=O)N[C@@H](Cc1ccc(O)cc1)C(N)=O)[C@@H](C)O)C(C)C)[C@@H](C)O) [Compound A65] | 10.5 | 9 | 7.9 | 11.5 | 10.1 | 8.7
SCNTSTCATQRLANEKHKSSNNFGPILPPTKVGSETY (L-Lys 16 acylated: K*(γGlu-dpeg-dpeg-(γGlu)4-CO(CH2)14CH3); disulfide bridge Cys2-Cys7; C-terminal amide) [Compound A5] | 10.8 | 9.5 | 7.8 | 12.3 | 10.8 | 9.2
SCNTSTCATQRLANEK(C20 diacid)HKSSNNFGPILPPTKVGSETY-NH2 (disulfide 2-7; N-terminus assumed; SMILES CC[C@H](C)[C@H](NC(=O)[C@@H]1CCCN1C(=O)CNC(=O)[C@H](Cc1ccccc1)NC(=O)[C@H](CC(N)=O)NC(=O)[C@H](CC(N)=O)NC(=O)[C@H](CO)NC(=O)[C@H](CO)NC(=O)[C@H](CCCCN)NC(=O)[C@H](Cc1c[nH]cn1)NC(=O)[C@H](CCCCNC(=O)CCCCCCCCCCCCCCCCCCC(=O)O)NC(=O)[C@H](CCC(=O)O)NC(=O)[C@H](CC(N)=O)NC(=O)[C@H](C)NC(=O)[C@H](CC(C)C)NC(=O)[C@H](CCCNC(=N)N)NC(=O)[C@H](CCC(N)=O)NC(=O)[C@@H](NC(=O)[C@H](C)NC(=O)[C@@H]1CSSC[C@H](NC(=O)[C@@H](N)CO)C(=O)N[C@@H](CC(N)=O)C(=O)N[C@@H]([C@@H](C)O)C(=O)N[C@@H](CO)C(=O)N[C@@H]([C@@H](C)O)C(=O)N1)[C@@H](C)O)C(=O)N[C@@H](CC(C)C)C(=O)N1CCC[C@H]1C(=O)N1CCC[C@H]1C(=O)N[C@H](C(=O)N[C@@H](CCCCN)C(=O)N[C@H](C(=O)NCC(=O)N[C@@H](CO)C(=O)N[C@@H](CCC(=O)O)C(=O)N[C@H](C(=O)N[C@@H](Cc1ccc(O)cc1)C(N)=O)[C@@H](C)O)C(C)C)[C@@H](C)O) [Compound A75] | 10.8 | 10 | 7.7 | 11.9 | 10.5 | 8.9

Now from value to binder:

pEC50 (cAMP accumulation), 0% HSA [1] [pEC50] | pEC50 (cAMP accumulation), 0.1% HSA [1] [pEC50] | pEC50 (cAMP accumulation), 4% HSA [1] [pEC50] | pEC50 (cAMP accumulation), 0% HSA (human amylin 3 receptor) [pEC50] | pEC50 (cAMP accumulation), 0.1% HSA (human amylin 3 receptor) [pEC50] | pEC50 (cAMP accumulation), 4% HSA (human amylin 3 receptor) [pEC50] | Binder
10.2 | 9.2 | 7.7 | 11.3 | 10.4 | 8.7 | SCNTSTCATQRLANEK([γGlu-C17 diacid])HKSSNNFGPILPPTKVGSETY-NH2 (disulfide 2-7; N-terminus assumed; SMILES CC[C@H](C)[C@H](NC(=O)[C@@H]1CCCN1C(=O)CNC(=O)[C@H](Cc1ccccc1)NC(=O)[C@H](CC(N)=O)NC(=O)[C@H](CC(N)=O)NC(=O)[C@H](CO)NC(=O)[C@H](CO)NC(=O)[C@H](CCCCN)NC(=O)[C@H](Cc1c[nH]cn1)NC(=O)[C@H](CCCCNC(=O)CC[C@H](NC(=O)CCCCCCCCCCCCCCCC(=O)O)C(=O)O)NC(=O)[C@H](CCC(=O)O)NC(=O)[C@H](CC(N)=O)NC(=O)[C@H](C)NC(=O)[C@H](CC(C)C)NC(=O)[C@H](CCCNC(=N)N)NC(=O)[C@H](CCC(N)=O)NC(=O)[C@@H](NC(=O)[C@H](C)NC(=O)[C@@H]1CSSC[C@H](NC(=O)[C@@H](N)CO)C(=O)N[C@@H](CC(N)=O)C(=O)N[C@@H]([C@@H](C)O)C(=O)N[C@@H](CO)C(=O)N[C@@H]([C@@H](C)O)C(=O)N1)[C@@H](C)O)C(=O)N[C@@H](CC(C)C)C(=O)N1CCC[C@H]1C(=O)N1CCC[C@H]1C(=O)N[C@H](C(=O)N[C@@H](CCCCN)C(=O)N[C@H](C(=O)NCC(=O)N[C@@H](CO)C(=O)N[C@@H](CCC(=O)O)C(=O)N[C@H](C(=O)N[C@@H](Cc1ccc(O)cc1)C(N)=O)[C@@H](C)O)C(C)C)[C@@H](C)O) [Compound A80]
9.8 | 9 | 7.8 | 10.8 | 10.1 | 8.7 | SCNTSTCATQRLANEK([γGlu-C16 diacid])HKSSNNFGPILPPTKVGSETY-NH2 (disulfide 2-7; N-terminus assumed; SMILES CC[C@H](C)[C@H](NC(=O)[C@@H]1CCCN1C(=O)CNC(=O)[C@H](Cc1ccccc1)NC(=O)[C@H](CC(N)=O)NC(=O)[C@H](CC(N)=O)NC(=O)[C@H](CO)NC(=O)[C@H](CO)NC(=O)[C@H](CCCCN)NC(=O)[C@H](Cc1c[nH]cn1)NC(=O)[C@H](CCCCNC(=O)CC[C@H](NC(=O)CCCCCCCCCCCCCCC(=O)O)C(=O)O)NC(=O)[C@H](CCC(=O)O)NC(=O)[C@H](CC(N)=O)NC(=O)[C@H](C)NC(=O)[C@H](CC(C)C)NC(=O)[C@H](CCCNC(=N)N)NC(=O)[C@H](CCC(N)=O)NC(=O)[C@@H](NC(=O)[C@H](C)NC(=O)[C@@H]1CSSC[C@H](NC(=O)[C@@H](N)CO)C(=O)N[C@@H](CC(N)=O)C(=O)N[C@@H]([C@@H](C)O)C(=O)N[C@@H](CO)C(=O)N[C@@H]([C@@H](C)O)C(=O)N1)[C@@H](C)O)C(=O)N[C@@H](CC(C)C)C(=O)N1CCC[C@H]1C(=O)N1CCC[C@H]1C(=O)N[C@H](C(=O)N[C@@H](CCCCN)C(=O)N[C@H](C(=O)NCC(=O)N[C@@H](CO)C(=O)N[C@@H](CCC(=O)O)C(=O)N[C@H](C(=O)N[C@@H](Cc1ccc(O)cc1)C(N)=O)[C@@H](C)O)C(C)C)[C@@H](C)O) [Compound A88]
10.3 | 9.9 | 9.5 | 11.5 | 10.4 | 9.4 | SCNTSTCATQRLANEK(C17 diacid)HKSSNNFGPILPPTKVGSETY-NH2 (disulfide 2-7; N-terminus assumed; SMILES CC[C@H](C)[C@H](NC(=O)[C@@H]1CCCN1C(=O)CNC(=O)[C@H](Cc1ccccc1)NC(=O)[C@H](CC(N)=O)NC(=O)[C@H](CC(N)=O)NC(=O)[C@H](CO)NC(=O)[C@H](CO)NC(=O)[C@H](CCCCN)NC(=O)[C@H](Cc1c[nH]cn1)NC(=O)[C@H](CCCCNC(=O)CCCCCCCCCCCCCCCC(=O)O)NC(=O)[C@H](CCC(=O)O)NC(=O)[C@H](CC(N)=O)NC(=O)[C@H](C)NC(=O)[C@H](CC(C)C)NC(=O)[C@H](CCCNC(=N)N)NC(=O)[C@H](CCC(N)=O)NC(=O)[C@@H](NC(=O)[C@H](C)NC(=O)[C@@H]1CSSC[C@H](NC(=O)[C@@H](N)CO)C(=O)N[C@@H](CC(N)=O)C(=O)N[C@@H]([C@@H](C)O)C(=O)N[C@@H](CO)C(=O)N[C@@H]([C@@H](C)O)C(=O)N1)[C@@H](C)O)C(=O)N[C@@H](CC(C)C)C(=O)N1CCC[C@H]1C(=O)N1CCC[C@H]1C(=O)N[C@H](C(=O)N[C@@H](CCCCN)C(=O)N[C@H](C(=O)NCC(=O)N[C@@H](CO)C(=O)N[C@@H](CCC(=O)O)C(=O)N[C@H](C(=O)N[C@@H](Cc1ccc(O)cc1)C(N)=O)[C@@H](C)O)C(C)C)[C@@H](C)O) [Compound A79]
